Here are results for 27 molecules from PMC10786891, “Massively parallel profiling of RNA-targeting CRISPR-Cas13d”.

By Kd is commonly meant the equilibrium constant for the complex coming apart. Lower therefore signals a tighter complex.

To fix the notation:
T1: EsCas13d, nuclease-dead (Eubacterium siraeum, UniProt B0MS50, R295A;H300A;R849A;H854A)
T1 sequence: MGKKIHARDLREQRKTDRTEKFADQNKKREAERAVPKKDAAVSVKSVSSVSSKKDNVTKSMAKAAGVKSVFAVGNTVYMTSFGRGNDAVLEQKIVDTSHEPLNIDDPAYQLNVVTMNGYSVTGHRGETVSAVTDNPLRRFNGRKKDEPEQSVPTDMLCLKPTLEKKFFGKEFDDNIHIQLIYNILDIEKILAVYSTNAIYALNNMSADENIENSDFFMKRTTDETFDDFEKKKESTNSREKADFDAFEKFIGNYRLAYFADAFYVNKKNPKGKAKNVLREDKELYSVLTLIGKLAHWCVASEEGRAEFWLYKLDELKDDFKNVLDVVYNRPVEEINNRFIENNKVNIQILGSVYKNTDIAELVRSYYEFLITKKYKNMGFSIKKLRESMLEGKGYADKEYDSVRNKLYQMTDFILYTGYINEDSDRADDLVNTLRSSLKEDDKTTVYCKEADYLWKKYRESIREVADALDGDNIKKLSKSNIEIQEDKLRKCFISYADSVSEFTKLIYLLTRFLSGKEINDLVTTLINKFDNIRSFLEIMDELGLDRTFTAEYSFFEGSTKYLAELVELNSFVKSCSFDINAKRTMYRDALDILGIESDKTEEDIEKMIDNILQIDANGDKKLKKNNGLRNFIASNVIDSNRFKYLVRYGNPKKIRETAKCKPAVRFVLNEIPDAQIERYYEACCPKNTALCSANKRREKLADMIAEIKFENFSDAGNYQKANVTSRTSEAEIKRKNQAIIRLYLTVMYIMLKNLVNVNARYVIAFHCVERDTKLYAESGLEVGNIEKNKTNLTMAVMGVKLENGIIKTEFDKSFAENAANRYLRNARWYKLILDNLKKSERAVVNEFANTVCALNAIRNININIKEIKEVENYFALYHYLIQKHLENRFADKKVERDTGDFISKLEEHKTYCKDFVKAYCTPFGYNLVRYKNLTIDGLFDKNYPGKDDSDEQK

B1: target 1 insC 3' of 11,insA 3' of 4 (mixed)
RNA 1: CACCCGUGCAAAAAUGCAGGGGUCUAAAACUGAGCGGAUAACCUCUCUAUGG
RNA 2: GGGAAUGGAUCCACAUCUACGAAUUCGUACCAUAGAGAGGUCUAUCCGCAUCACCGAGAUCGGAAGAGCACACGU
B2: target 1 G12C,C21A (mixed)
RNA 1: CACCCGUGCAAAAAUGCAGGGGUCUAAAACUGAGCGGAUAACCUCUCUAUGG
RNA 2: GGGAAUGGAUCCACAUCUACGAAUUCGUACAAUAGAGAGCUUAUCCGCUCACCGAGAUCGGAAGAGCACACGU
B3: target 1 A1G,C6U (mixed)
RNA 1: CACCCGUGCAAAAAUGCAGGGGUCUAAAACUGAGCGGAUAACCUCUCUAUGG
RNA 2: GGGAAUGGAUCCACAUCUACGAAUUCGUACCAUAGAGAGGUUAUCUGCUCGCCGAGAUCGGAAGAGCACACGU
B4: target 1 insC 3' of 19,insG 3' of 6 (mixed)
RNA 1: CACCCGUGCAAAAAUGCAGGGGUCUAAAACUGAGCGGAUAACCUCUCUAUGG
RNA 2: GGGAAUGGAUCCACAUCUACGAAUUCGUACCAUCAGAGAGGUUAUCCGGCUCACCGAGAUCGGAAGAGCACACGU
B5: target 1 A1C,C6U (mixed)
RNA 1: CACCCGUGCAAAAAUGCAGGGGUCUAAAACUGAGCGGAUAACCUCUCUAUGG
RNA 2: GGGAAUGGAUCCACAUCUACGAAUUCGUACCAUAGAGAGGUUAUCUGCUCCCCGAGAUCGGAAGAGCACACGU
B6: target 1 U3C,C21U (mixed)
RNA 1: CACCCGUGCAAAAAUGCAGGGGUCUAAAACUGAGCGGAUAACCUCUCUAUGG
RNA 2: GGGAAUGGAUCCACAUCUACGAAUUCGUACUAUAGAGAGGUUAUCCGCCCACCGAGAUCGGAAGAGCACACGU
B7: target 1 U10G,A16G (mixed)
RNA 1: CACCCGUGCAAAAAUGCAGGGGUCUAAAACUGAGCGGAUAACCUCUCUAUGG
RNA 2: GGGAAUGGAUCCACAUCUACGAAUUCGUACCAUAGGGAGGUGAUCCGCUCACCGAGAUCGGAAGAGCACACGU
B8: target 1 insA 3' of 19,insC 3' of 5 (mixed)
RNA 1: CACCCGUGCAAAAAUGCAGGGGUCUAAAACUGAGCGGAUAACCUCUCUAUGG
RNA 2: GGGAAUGGAUCCACAUCUACGAAUUCGUACCAUAAGAGAGGUUAUCCGCCUCACCGAGAUCGGAAGAGCACACGU
B9: target 1 insA 3' of 12,insG 3' of 9 (mixed)
RNA 1: CACCCGUGCAAAAAUGCAGGGGUCUAAAACUGAGCGGAUAACCUCUCUAUGG
RNA 2: GGGAAUGGAUCCACAUCUACGAAUUCGUACCAUAGAGAGGAUUAGUCCGCUCACCGAGAUCGGAAGAGCACACGU
B10: target 1 insA 3' of 8,insA 3' of 4 (mixed)
RNA 1: CACCCGUGCAAAAAUGCAGGGGUCUAAAACUGAGCGGAUAACCUCUCUAUGG
RNA 2: GGGAAUGGAUCCACAUCUACGAAUUCGUACCAUAGAGAGGUUAUACCGCAUCACCGAGAUCGGAAGAGCACACGU
B11: target 1 U3C,G12A (mixed)
RNA 1: CACCCGUGCAAAAAUGCAGGGGUCUAAAACUGAGCGGAUAACCUCUCUAUGG
RNA 2: GGGAAUGGAUCCACAUCUACGAAUUCGUACCAUAGAGAGAUUAUCCGCCCACCGAGAUCGGAAGAGCACACGU
B12: target 1 complement block 4-6 (mixed)
RNA 1: CACCCGUGCAAAAAUGCAGGGGUCUAAAACUGAGCGGAUAACCUCUCUAUGG
RNA 2: GGGAAUGGAUCCACAUCUACGAAUUCGUACCAUAGAGAGGUUAUCGCGUCACCGAGAUCGGAAGAGCACACGU
B13: target 1 insC 3' of 22,insU 3' of 7 (mixed)
RNA 1: CACCCGUGCAAAAAUGCAGGGGUCUAAAACUGAGCGGAUAACCUCUCUAUGG
RNA 2: GGGAAUGGAUCCACAUCUACGAAUUCGUACCCAUAGAGAGGUUAUCUCGCUCACCGAGAUCGGAAGAGCACACGU
B14: target 1 G15A,A18U (mixed)
RNA 1: CACCCGUGCAAAAAUGCAGGGGUCUAAAACUGAGCGGAUAACCUCUCUAUGG
RNA 2: GGGAAUGGAUCCACAUCUACGAAUUCGUACCAUUGAAAGGUUAUCCGCUCACCGAGAUCGGAAGAGCACACGU
B15: target 1 insG 3' of 7 (mixed)
RNA 1: CACCCGUGCAAAAAUGCAGGGGUCUAAAACUGAGCGGAUAACCUCUCUAUGG
RNA 2: GGGAAUGGAUCCACAUCUACGAAUUCGUACCAUAGAGAGGUUAUCGCGCUCACCGAGAUCGGAAGAGCACACGU
B16: target 1 A18C,C21A (mixed)
RNA 1: CACCCGUGCAAAAAUGCAGGGGUCUAAAACUGAGCGGAUAACCUCUCUAUGG
RNA 2: GGGAAUGGAUCCACAUCUACGAAUUCGUACAAUCGAGAGGUUAUCCGCUCACCGAGAUCGGAAGAGCACACGU
B17: target 1 insA 3' of 21,insA 3' of 10 (mixed)
RNA 1: CACCCGUGCAAAAAUGCAGGGGUCUAAAACUGAGCGGAUAACCUCUCUAUGG
RNA 2: GGGAAUGGAUCCACAUCUACGAAUUCGUACCAAUAGAGAGGUUAAUCCGCUCACCGAGAUCGGAAGAGCACACGU
B18: target 1 insC 3' of 19,insU 3' of 1 (mixed)
RNA 1: CACCCGUGCAAAAAUGCAGGGGUCUAAAACUGAGCGGAUAACCUCUCUAUGG
RNA 2: GGGAAUGGAUCCACAUCUACGAAUUCGUACCAUCAGAGAGGUUAUCCGCUCAUCCGAGAUCGGAAGAGCACACGU
B19: target 1 insC 3' of 15,insU 3' of 14 (mixed)
RNA 1: CACCCGUGCAAAAAUGCAGGGGUCUAAAACUGAGCGGAUAACCUCUCUAUGG
RNA 2: GGGAAUGGAUCCACAUCUACGAAUUCGUACCAUAGAGCAUGGUUAUCCGCUCACCGAGAUCGGAAGAGCACACGU
B20: target 1 insA 3' of 13,insA 3' of 6 (mixed)
RNA 1: CACCCGUGCAAAAAUGCAGGGGUCUAAAACUGAGCGGAUAACCUCUCUAUGG
RNA 2: GGGAAUGGAUCCACAUCUACGAAUUCGUACCAUAGAGAGAGUUAUCCAGCUCACCGAGAUCGGAAGAGCACACGU
B21: target 1 insU 3' of 17,insU 3' of 9 (mixed)
RNA 1: CACCCGUGCAAAAAUGCAGGGGUCUAAAACUGAGCGGAUAACCUCUCUAUGG
RNA 2: GGGAAUGGAUCCACAUCUACGAAUUCGUACCAUAGUAGAGGUUAUUCCGCUCACCGAGAUCGGAAGAGCACACGU
B22: target 1 insU 3' of 15,insC 3' of 3 (mixed)
RNA 1: CACCCGUGCAAAAAUGCAGGGGUCUAAAACUGAGCGGAUAACCUCUCUAUGG
RNA 2: GGGAAUGGAUCCACAUCUACGAAUUCGUACCAUAGAGUAGGUUAUCCGCUCCACCGAGAUCGGAAGAGCACACGU
B23: target 1 C2A,G15U (mixed)
RNA 1: CACCCGUGCAAAAAUGCAGGGGUCUAAAACUGAGCGGAUAACCUCUCUAUGG
RNA 2: GGGAAUGGAUCCACAUCUACGAAUUCGUACCAUAGAUAGGUUAUCCGCUAACCGAGAUCGGAAGAGCACACGU
B24: target 1 insU 3' of 20,insG 3' of 3 (mixed)
RNA 1: CACCCGUGCAAAAAUGCAGGGGUCUAAAACUGAGCGGAUAACCUCUCUAUGG
RNA 2: GGGAAUGGAUCCACAUCUACGAAUUCGUACCAUUAGAGAGGUUAUCCGCUGCACCGAGAUCGGAAGAGCACACGU
B25: target 1 A9U,A20U (mixed)
RNA 1: CACCCGUGCAAAAAUGCAGGGGUCUAAAACUGAGCGGAUAACCUCUCUAUGG
RNA 2: GGGAAUGGAUCCACAUCUACGAAUUCGUACCUUAGAGAGGUUUUCCGCUCACCGAGAUCGGAAGAGCACACGU
B26: target 1 insC 3' of 19,insG 3' of 2 (mixed)
RNA 1: CACCCGUGCAAAAAUGCAGGGGUCUAAAACUGAGCGGAUAACCUCUCUAUGG
RNA 2: GGGAAUGGAUCCACAUCUACGAAUUCGUACCAUCAGAGAGGUUAUCCGCUCGACCGAGAUCGGAAGAGCACACGU
B27: target 1 C7A,U19C (mixed)
RNA 1: CACCCGUGCAAAAAUGCAGGGGUCUAAAACUGAGCGGAUAACCUCUCUAUGG
RNA 2: GGGAAUGGAUCCACAUCUACGAAUUCGUACCACAGAGAGGUUAUACGCUCACCGAGAUCGGAAGAGCACACGU

The target of the series is T1, EsCas13d, nuclease-dead. Put plainly: crRNA (strand 1, pre-loaded); Mg2+; 40 mM Tris-HCl pH 7.5, 150 mM NaCl, 6 mM MgCl2, 1 mM DTT, 0.1% Tween-20, 0.2 mg/ml BSA; 25 C; 10 min per concentration, then washed. Conditions: tags: His6-TwinStrep-SUMO cleaved; N-terminal SNAP kept (SNAP-Surface 488); label: 3' end held by stalled T7 RNA polymerase.
With B1, the dissociation constant (Kd) came out at 21.1 ± 2 nM.

B2: binding was put at a Kd of 58 ± 11 nM.

B3 returned a Kd of 8.9 ± 0.7 nM.

With B4, the dissociation constant Kd came out at 32 ± 4 nM.

For B5, the affinity, expressed as Kd, was 9.2 ± 0.9 nM.

On to B6, for which the Kd is 27 ± 7 nM.

B7 had a Kd of 42.2 ± 3.5 nM.

In the case of B8, the dissociation constant Kd was 48 ± 8 nM.

As for B9, the Kd came to 46.9 ± 3.5 nM.

As for B10, the dissociation constant (Kd) amounted to 8.4 ± 0.5 nM.

Molecule B11 yielded a Kd of 11.1 ± 1.1 nM.

Turning to B12, the Kd was found to be 4.95 ± 0.15 nM.

Molecule B13 registered a Kd of 47 ± 8 nM.

In turn, B14 came in with a Kd of 58 ± 11 nM.

The molecule B15 registered a Kd of 5.5 ± 0.16 nM.

For B16, binding was characterised by a dissociation constant (Kd) of 88 ± 23 nM.

B17 showed a Kd of 28.2 ± 2.4 nM.

On to B18, for which binding was put at a Kd of 39 ± 8 nM.

As for B19, the Kd was determined as 28.5 ± 2.3 nM.

In turn, B20 came in with a dissociation constant (Kd) of 4.18 ± 0.24 nM.

For the molecule B21, the equilibrium dissociation constant (Kd) came to 40 ± 8 nM.

For the molecule B22, the dissociation constant (Kd) worked out at 11.6 ± 1.1 nM.

B23 displayed a Kd of 29 ± 5 nM.

In turn, B24 showed an equilibrium dissociation constant (Kd) of 9.4 ± 0.6 nM.

As to B25, binding was put at a Kd of 43 ± 4 nM.

In turn, B26 registered a Kd of 33 ± 5 nM.

In turn, B27 gave a dissociation constant Kd of 33.2 ± 3.5 nM.
